# According to IntAct's records for PubMed 19624469:
# B1: Protein phosphatase 2C 16 (Arabidopsis thaliana (Mouse-ear cress)), Q9CAJ0 (parent)
# chain: MEEMTPAVAMTLSLAANTMCESSPVEITQLKNVTDAADLLSDSENQSFCNGGTECTMEDVSELEEVGEQDLLKTLSDTRSGSSNVFDEDDVLSVVEDNSAVISEGLLVVDAGSELSLSNTAMEIDNGRVLATAIIVGESSIEQVPTAEVLIAGVNQDTNTSEVVIRLPDENSNHLVKGRSVYELDCIPLWGTVSIQGNRSEMEDAFAVSPHFLKLPIKMLMGDHEGMSPSLTHLTGHFFGVYDGHGGHKVADYCRDRLHFALAEEIERIKDELCKRNTGEGRQVQWDKVFTSCFLTVDGEIEGKIGRAVVGSSDKVLEAVASETVGSTAVVALVCSSHIVVSNCGDSRAVLFRGKEAMPLSVDHKPDREDEYARIENAGGKVIQWQGARVFGVLAMSRSIGDRYLKPYVIPEPEVTFMPRSREDECLILASDGLWDVMNNQEVCEIARRRILMWHKKNGAPPLAERGKGIDPACQAAADYLSMLALQKGSKDNISIIVIDLKAQRKFKTRT
# B2: Protein phosphatase 2C 16 (Arabidopsis thaliana (Mouse-ear cress)), Q9CAJ0 (parent)
# chain: B1 chain
# partner: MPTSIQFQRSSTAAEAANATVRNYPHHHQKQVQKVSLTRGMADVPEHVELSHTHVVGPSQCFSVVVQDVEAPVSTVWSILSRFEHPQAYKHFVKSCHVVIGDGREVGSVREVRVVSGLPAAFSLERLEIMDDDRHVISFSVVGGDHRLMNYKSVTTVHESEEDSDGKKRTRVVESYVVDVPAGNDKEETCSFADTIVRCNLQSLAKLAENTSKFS
# B3: Protein phosphatase 2C 16 (Arabidopsis thaliana (Mouse-ear cress)), Q9CAJ0 (parent)
# chain: B1 chain
# partner: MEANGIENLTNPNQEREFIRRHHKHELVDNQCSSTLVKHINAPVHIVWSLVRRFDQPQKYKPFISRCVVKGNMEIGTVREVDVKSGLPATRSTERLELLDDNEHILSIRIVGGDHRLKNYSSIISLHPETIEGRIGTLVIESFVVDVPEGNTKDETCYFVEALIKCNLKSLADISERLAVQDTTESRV
# B4: Protein phosphatase 2C 16 (Arabidopsis thaliana (Mouse-ear cress)), Q9CAJ0 (parent)
# chain: B1 chain
# partner: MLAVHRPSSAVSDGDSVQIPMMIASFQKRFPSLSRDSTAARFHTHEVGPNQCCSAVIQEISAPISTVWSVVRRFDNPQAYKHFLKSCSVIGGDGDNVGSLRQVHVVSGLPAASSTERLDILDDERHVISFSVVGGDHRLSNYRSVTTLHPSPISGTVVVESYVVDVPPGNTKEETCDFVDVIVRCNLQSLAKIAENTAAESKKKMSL
# B5: Protein phosphatase 2C 16 (Arabidopsis thaliana (Mouse-ear cress)), Q9CAJ0 (parent)
# chain: B1 chain
# partner: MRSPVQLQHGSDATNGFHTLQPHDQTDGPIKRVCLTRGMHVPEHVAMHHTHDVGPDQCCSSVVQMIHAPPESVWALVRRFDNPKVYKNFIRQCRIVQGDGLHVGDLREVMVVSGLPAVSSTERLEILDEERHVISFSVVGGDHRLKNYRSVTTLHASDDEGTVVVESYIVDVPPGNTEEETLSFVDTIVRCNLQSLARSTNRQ
# Variants of: B1
# Conditions: with pyr1_arath PYR1, O49686
row,Variant,effect of a mutation on the interaction
1,MEEMTPAVAMTLSLAANTMCESSPVEITQLKNVTDAADLLSDSENQSFCNGGTECTMEDVSELEEVGEQDLLKTLSDTRSGSSNVFDEDDVLSVVEDNSAVISEGLLVVDAGSELSLSNTAMEIDNGRVLATAIIVGESSIEQVPTAEVLIAGVNQDTNTSEVVIRLPDENSNHLVKGRSVYELDCIPLWGTVSIQGNRSEMEDAFAVSPHFLKLPIKMLMGDHEGMSPSLTHLTGHFFGVYDGHDGHKVADYCRDRLHFALAEEIERIKDELCKRNTGEGRQVQWDKVFTSCFLTVDGEIEGKIGRAVVGSSDKVLEAVASETVGSTAVVALVCSSHIVVSNCGDSRAVLFRGKEAMPLSVDHKPDREDEYARIENAGGKVIQWQGARVFGVLAMSRSIGDRYLKPYVIPEPEVTFMPRSREDECLILASDGLWDVMNNQEVCEIARRRILMWHKKNGAPPLAERGKGIDPACQAAADYLSMLALQKGSKDNISIIVIDLKAQRKFKTRT [G246D],disrupting interaction

# Variants of: B2
# Conditions: with pyl6_arath PYL6, Q8S8E3
row,Variant,effect of a mutation on the interaction
1,MEEMTPAVAMTLSLAANTMCESSPVEITQLKNVTDAADLLSDSENQSFCNGGTECTMEDVSELEEVGEQDLLKTLSDTRSGSSNVFDEDDVLSVVEDNSAVISEGLLVVDAGSELSLSNTAMEIDNGRVLATAIIVGESSIEQVPTAEVLIAGVNQDTNTSEVVIRLPDENSNHLVKGRSVYELDCIPLWGTVSIQGNRSEMEDAFAVSPHFLKLPIKMLMGDHEGMSPSLTHLTGHFFGVYDGHDGHKVADYCRDRLHFALAEEIERIKDELCKRNTGEGRQVQWDKVFTSCFLTVDGEIEGKIGRAVVGSSDKVLEAVASETVGSTAVVALVCSSHIVVSNCGDSRAVLFRGKEAMPLSVDHKPDREDEYARIENAGGKVIQWQGARVFGVLAMSRSIGDRYLKPYVIPEPEVTFMPRSREDECLILASDGLWDVMNNQEVCEIARRRILMWHKKNGAPPLAERGKGIDPACQAAADYLSMLALQKGSKDNISIIVIDLKAQRKFKTRT [G246D],disrupting interaction

# Variants of: B3
# Conditions: with pyl8_arath PYL8, Q9FGM1
row,Variant,effect of a mutation on the interaction
1,MEEMTPAVAMTLSLAANTMCESSPVEITQLKNVTDAADLLSDSENQSFCNGGTECTMEDVSELEEVGEQDLLKTLSDTRSGSSNVFDEDDVLSVVEDNSAVISEGLLVVDAGSELSLSNTAMEIDNGRVLATAIIVGESSIEQVPTAEVLIAGVNQDTNTSEVVIRLPDENSNHLVKGRSVYELDCIPLWGTVSIQGNRSEMEDAFAVSPHFLKLPIKMLMGDHEGMSPSLTHLTGHFFGVYDGHDGHKVADYCRDRLHFALAEEIERIKDELCKRNTGEGRQVQWDKVFTSCFLTVDGEIEGKIGRAVVGSSDKVLEAVASETVGSTAVVALVCSSHIVVSNCGDSRAVLFRGKEAMPLSVDHKPDREDEYARIENAGGKVIQWQGARVFGVLAMSRSIGDRYLKPYVIPEPEVTFMPRSREDECLILASDGLWDVMNNQEVCEIARRRILMWHKKNGAPPLAERGKGIDPACQAAADYLSMLALQKGSKDNISIIVIDLKAQRKFKTRT [G246D],disrupting interaction

# Variants of: B4
# Conditions: with pyl4_arath PYL4, O80920
row,Variant,effect of a mutation on the interaction
1,MEEMTPAVAMTLSLAANTMCESSPVEITQLKNVTDAADLLSDSENQSFCNGGTECTMEDVSELEEVGEQDLLKTLSDTRSGSSNVFDEDDVLSVVEDNSAVISEGLLVVDAGSELSLSNTAMEIDNGRVLATAIIVGESSIEQVPTAEVLIAGVNQDTNTSEVVIRLPDENSNHLVKGRSVYELDCIPLWGTVSIQGNRSEMEDAFAVSPHFLKLPIKMLMGDHEGMSPSLTHLTGHFFGVYDGHDGHKVADYCRDRLHFALAEEIERIKDELCKRNTGEGRQVQWDKVFTSCFLTVDGEIEGKIGRAVVGSSDKVLEAVASETVGSTAVVALVCSSHIVVSNCGDSRAVLFRGKEAMPLSVDHKPDREDEYARIENAGGKVIQWQGARVFGVLAMSRSIGDRYLKPYVIPEPEVTFMPRSREDECLILASDGLWDVMNNQEVCEIARRRILMWHKKNGAPPLAERGKGIDPACQAAADYLSMLALQKGSKDNISIIVIDLKAQRKFKTRT [G246D],disrupting interaction

# Variants of: B5
# Conditions: with pyl5_arath PYL5, Q9FLB1
row,Variant,effect of a mutation on the interaction
1,MEEMTPAVAMTLSLAANTMCESSPVEITQLKNVTDAADLLSDSENQSFCNGGTECTMEDVSELEEVGEQDLLKTLSDTRSGSSNVFDEDDVLSVVEDNSAVISEGLLVVDAGSELSLSNTAMEIDNGRVLATAIIVGESSIEQVPTAEVLIAGVNQDTNTSEVVIRLPDENSNHLVKGRSVYELDCIPLWGTVSIQGNRSEMEDAFAVSPHFLKLPIKMLMGDHEGMSPSLTHLTGHFFGVYDGHDGHKVADYCRDRLHFALAEEIERIKDELCKRNTGEGRQVQWDKVFTSCFLTVDGEIEGKIGRAVVGSSDKVLEAVASETVGSTAVVALVCSSHIVVSNCGDSRAVLFRGKEAMPLSVDHKPDREDEYARIENAGGKVIQWQGARVFGVLAMSRSIGDRYLKPYVIPEPEVTFMPRSREDECLILASDGLWDVMNNQEVCEIARRRILMWHKKNGAPPLAERGKGIDPACQAAADYLSMLALQKGSKDNISIIVIDLKAQRKFKTRT [G246D],disrupting interaction
